Assay results: paper PMC2172336 (The Journal of Cell Biology, 2004)
Read-outs that look alike come from different tables or passages of the source. Each block holds one binder with its values, some of them ahead of it.

B1: Fus3 (wild type), in vitro translated, 35S-labelled (enzyme, S. cerevisiae, UniProt P16892 1-353, looked up)
chain: MPKRIVYNISSDFQLKSLLGEGAYGVVCSATHKPTGEIVAIKKIEPFDKPLFALRTLREIKILKHFKHENIITIFNIQRPDSFENFNEVYIIQELMQTDLHRVISTQMLSDDHIQYFIYQTLRAVKVLHGSNVIHRDLKPSNLLINSNCDLKVCDFGLARIIDESAADNSEPTGQQSGMTEYVATRWYRAPEVMLTSAKYSRAMDVWSCGCILAELFLRRPIFPGRDYRHQLLLIFGIIGTPHSDNDLRCIESPRAREYIKSLPMYPAAPLEKMFPRVNPKGIDLLQRMLVFDPAKRITAKEALEHPYLQTYHDPNDEPEGEPIPPSFFEFDHYKEALTTKDLKKLIWNEIFS
modifications: [35S]methionine label
B2: GST-Ste7_(1-98) (domain or fragment, S. cerevisiae, UniProt P06784 1-98, looked up)
chain: MFQRKTLQRRNLKGLNLNLHPDVGNNGQLQEKTETHQGQSRIEGHVMSNINAIQNNSNLFLRRGIKKKLTLDAFGDDQAISKPNTVVIQQPQNEPVLV
B4: GST-Dig2_(98-114) (domain or fragment, S. cerevisiae, UniProt Q03373 98-114, looked up)
chain: SLKRKRVPPALNFSDIQ
B5: GST-Ste5_(241-336) (domain or fragment, S. cerevisiae, UniProt P32917 241-336, looked up)
chain: PENDELKDILISDFLIHKIPDSELSITPQSRFPPYSPLLPPFGLSYTPVERQTIYSQAPSLNPNLILAAPPKERNQIPQKKSNYTFLHSPLGHRRI
B9: Kss1 (wild type), in vitro translated, 35S-labelled (enzyme, S. cerevisiae, UniProt P14681 1-368, looked up)
chain: MARTITFDIPSQYKLVDLIGEGAYGTVCSAIHKPSGIKVAIKKIQPFSKKLFVTRTIREIKLLRYFHEHENIISILDKVRPVSIDKLNAVYLVEELMETDLQKVINNQNSGFSTLSDDHVQYFTYQILRALKSIHSAQVIHRDIKPSNLLLNSNCDLKVCDFGLARCLASSSDSRETLVGFMTEYVATRWYRAPEIMLTFQEYTTAMDIWSCGCILAEMVSGKPLFPGRDYHHQLWLILEVLGTPSFEDFNQIKSKRAKEYIANLPMRPPLPWETVWSKTDLNPDMIDLLDKMLQFNPDKRISAAEALRHPYLAMYHDPSDEPEYPPLNLDDEFWKLDNKIMRPEEEEEVPIEMLKDMLYDELMKTME
modifications: [35S]methionine label

Columns and labels:
GST-Dig1_(93-111) = molecular target: T1, GST-Dig1_(93-111) (S. cerevisiae, UniProt Q03063 93-111); assay: pull-down
T1 chain (looked up): KKSLKRGRVPAPLNLSDSN

GST-Dig2_(98-114) = molecular target: B4; assay: pull-down
GST-Ste7_(1-98) = molecular target: B2; assay: pull-down
GST-Ste5_(241-336) = molecular target: B5; assay: pull-down
GST-Dig1_(213-452) = molecular target: T2, GST-Dig1_(213-452) (S. cerevisiae, UniProt Q03063 213-452); assay: pull-down
T2 sequence (looked up): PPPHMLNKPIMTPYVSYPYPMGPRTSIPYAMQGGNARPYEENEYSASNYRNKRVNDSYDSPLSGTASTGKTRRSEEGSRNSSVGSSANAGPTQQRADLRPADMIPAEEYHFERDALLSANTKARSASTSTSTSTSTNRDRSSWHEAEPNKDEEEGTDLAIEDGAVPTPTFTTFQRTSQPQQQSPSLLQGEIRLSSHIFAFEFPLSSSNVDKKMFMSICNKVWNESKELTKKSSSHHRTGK

[1] = molecular target: B1; assay: pull-down
[2] = molecular target: B9; assay: pull-down
[3] = molecular target: B1; assay: pull-down; remark: listed apart in the source
[4] = molecular target: T3, Kss1-GBD (wild-type Kss1 fused to the Gal4 DNA-binding domain) (S. cerevisiae, UniProt P14681 1-368); assay: two-hybrid
T3 sequence (looked up): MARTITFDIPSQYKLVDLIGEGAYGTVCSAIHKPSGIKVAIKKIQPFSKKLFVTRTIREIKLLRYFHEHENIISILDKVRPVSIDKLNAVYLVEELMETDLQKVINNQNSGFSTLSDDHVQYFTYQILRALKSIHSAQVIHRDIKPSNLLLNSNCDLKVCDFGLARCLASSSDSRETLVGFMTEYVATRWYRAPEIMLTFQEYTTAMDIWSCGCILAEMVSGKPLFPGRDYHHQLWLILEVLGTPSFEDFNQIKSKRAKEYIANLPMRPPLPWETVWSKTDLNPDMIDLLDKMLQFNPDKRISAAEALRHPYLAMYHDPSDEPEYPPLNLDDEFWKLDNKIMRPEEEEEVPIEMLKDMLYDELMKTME

[5] = molecular target: B9; assay: pull-down; remark: listed apart in the source

Binder: B1
fold higher affinity than Kss1 for the same D-site (GST-Dig1_(93-111)): ~17 fold
fold higher affinity than Kss1 for the same D-site (GST-Dig2_(98-114)): ~17 fold
fold higher affinity than for the Dig1 D-site (GST-Dig2_(98-114)): ~3 fold
percent of input bound (GST-Ste7_(1-98)): 14 % of input
percent of input bound (GST-Ste5_(241-336)): 12.6 % of input
percent of input bound (GST-Dig1_(213-452)): 0.6 % of input

Binder: B2
Kd [1]: ~0.1 µM
Kd [2]: ~0.1 µM

Binder: B4
Kd [3]: ~1 µM

Binder: B5
Kd [1]: ~1 µM
Kd [2]: ~6.5 µM

Binder: B9
fold higher affinity than for the Dig1 D-site (GST-Dig2_(98-114)): ~3 fold
percent of input bound (GST-Ste7_(1-98)): 9 % of input
percent of input bound (GST-Ste5_(241-336)): 3.7 % of input
percent of input bound (GST-Dig1_(213-452)): 1.3 % of input

Other lines, results leading:

percent of wild-type binding (GST-Ste7_(1-98)): < 1 % of wild-type
B3: Fus3-7m2 (D317N), in vitro translated, 35S-labelled (enzyme, S. cerevisiae, UniProt P16892 1-353, looked up)
chain: MPKRIVYNISSDFQLKSLLGEGAYGVVCSATHKPTGEIVAIKKIEPFDKPLFALRTLREIKILKHFKHENIITIFNIQRPDSFENFNEVYIIQELMQTDLHRVISTQMLSDDHIQYFIYQTLRAVKVLHGSNVIHRDLKPSNLLINSNCDLKVCDFGLARIIDESAADNSEPTGQQSGMTEYVATRWYRAPEVMLTSAKYSRAMDVWSCGCILAELFLRRPIFPGRDYRHQLLLIFGIIGTPHSDNDLRCIESPRAREYIKSLPMYPAAPLEKMFPRVNPKGIDLLQRMLVFDPAKRITAKEALEHPYLQTYHDPNNEPEGEPIPPSFFEFDHYKEALTTKDLKKLIWNEIFS
modifications: [35S]methionine label

fold above background (two-hybrid reporter) [4]: 23 fold
B6: full-length Dig2-GAD (natural protein, S. cerevisiae, UniProt Q03373 1-323, looked up)
chain: MNKEEQEDPQQEQISTVQENDPRNLQQLGMLLVSPGLDEDRLSEKMISKIKKSRDIEKNQKLLISRLSQKEEDHSGKPPTITTSPAEKTVPFKSLNHSLKRKRVPPALNFSDIQASSHLHGSKSAPPNITRFPQHKNSLRVRYMGRMAPTNQDYHPSVANSYMTATYPYPYTGLPPVPCYPYSSTPTQTHAYEGYYSPMYPGPLYNNGIIPADYHAKRKKLAGRSPHLEDLTSRKRTFVSKHHNGDPIISKTDEDIECSVTKNSLSEGASLNDDADDDNDKERIIIGEISLYDDVFKFEVRDDKNDYMKACETIWTEWHNLKK

fold above background (two-hybrid reporter) [4]: 4 fold
B7: Ste12-GAD (Ste12 fused to the Gal4 transcriptional activation domain) (natural protein, S. cerevisiae, UniProt P13574 1-688, looked up)
chain: MKVQITNSRTEEILKVQANNENDEVSKATPGEVEESLRLIGDLKFFLATAPVNWQENQIIRRYYLNSGQGFVSCVFWNNLYYITGTDIVKCCLYRMQKFGREVVQKKKFEEGIFSDLRNLKCGIDATLEQPKSEFLSFLFRNMCLKTQKKQKVFFWFSVAHDKLFADALERDLKRESLNQPSTTKPVNEPALSFSYDSSSDKPLYDQLLQHLDSRRPSSTTKSDNSPPKLESENFKDNELVTVTNQPLLGVGLMDDDAPESPSQINDFIPQKLIIEPNTLELNGLTEETPHDLPKNTAKGRDEEDFPLDYFPVSVEYPTEENAFDPFPPQAFTPAAPSMPISYDNVNERDSMPVNSLLNRYPYQLSVAPTFPVPPSSSRQHFMTNRDFYSSNNNKEKLVSPSDPTSYMKYDEPVMDFDESRPNENCTNAKSHNSGQQTKQHQLYSNNFQQSYPNGMVPGYYPKMPYNPMGGDPLLDQAFYGADDFFFPPEGCDNNMLYPQTATSWNVLPPQAMQPAPTYVGRPYTPNYRSTPGSAMFPYMQSSNSMQWNTAVSPYSSRAPSTTAKNYPPSTFYSQNINQYPRRRTVGMKSSQGNVPTGNKQSVGKSAKISKPLHIKTSAYQKQYKINLETKARPSAGDEDSAHPDKNKEISMPTPDSNTLVVQSEEGGAHSLEVDTNRRSDKNLPDAT

fold above background (two-hybrid reporter) [4]: 3 fold
B8: full-length Dig1-GAD (natural protein, S. cerevisiae, UniProt Q03063 1-452, looked up)
chain: MAVSARLRTTAEDTSIAKSTQDPIGDTEISVANAKGSSDSNIKNSPGGNSVGQESELEHVPEEDDSGDKEADHEDSETATAKKRKAQPLKNPKKSLKRGRVPAPLNLSDSNTNTHGGNIKDGNLASSNSAHFPPVANQNVKSAPAQVTQHSKFQPRVQYLGKASSRQSIQVNNSSNSYGKPHMPSAGIMSAMNPYMPMNRYIMSPYYNPYGIPPPHMLNKPIMTPYVSYPYPMGPRTSIPYAMQGGNARPYEENEYSASNYRNKRVNDSYDSPLSGTASTGKTRRSEEGSRNSSVGSSANAGPTQQRADLRPADMIPAEEYHFERDALLSANTKARSASTSTSTSTSTNRDRSSWHEAEPNKDEEEGTDLAIEDGAVPTPTFTTFQRTSQPQQQSPSLLQGEIRLSSHIFAFEFPLSSSNVDKKMFMSICNKVWNESKELTKKSSSHHRTGK

Kd [5]: ~2 µM
B10: GST-Ste12_(298-473) (domain or fragment, S. cerevisiae, UniProt P13574 298-473, looked up)
chain: AKGRDEEDFPLDYFPVSVEYPTEENAFDPFPPQAFTPAAPSMPISYDNVNERDSMPVNSLLNRYPYQLSVAPTFPVPPSSSRQHFMTNRDFYSSNNNKEKLVSPSDPTSYMKYDEPVMDFDESRPNENCTNAKSHNSGQQTKQHQLYSNNFQQSYPNGMVPGYYPKMPYNPMGGDP
